This experiment deals with Aβ (beta amyloid peptide) (human). The experiment can be described thus: SPR.

B1: humanized 3D6v2 (antibody, V domains shown)
VH: EVQLLESGGGLVQPGGSLRLSCAASGFTFSNYGMSWVRQAPGKGLEWVASIRSGGGRTYYSDNVKGRFTISRDNSKNTLYLQMNSLRAEDTAVYYCVRYDHYSGSSDYWGQGTLVTVSS
VL: DVVMTQSPLSLPVTPGEPASISCKSSQSLLDSDGKTYLNWLLQKPGQSPQRLIYLVSKLDSGVPDRFSGSGSGTDFTLKISRVEAEDVGVYYCWQGTHFPRTFGQGTKVEIK
In turn, B1 came in with a dissociation constant Kd of 2.24 nM.

B2: humanized 3D6v1 (antibody, V domains shown)
VH: EVQLLESGGGLVQPGGSLRLSCAASGFTFSNYGMSWVRQAPGKGLEWVASIRSGGGRTYYSDNVKGRFTISRDNAKNSLYLQMNSLRAEDTALYYCVRYDHYSGSSDYWGQGTLVTVSS
VL: YVVMTQSPLSLPVTPGEPASISCKSSQSLLDSDGKTYLNWLLQKPGQSPQRLIYLVSKLDSGVPDRFSGSGSGTDFTLKISRVEAEDVGVYYCWQGTHFPRTFGQGTKVEIK
Turning to B2, the Kd was found to be 2.06 nM.

Usually Kd stands for the constant that tells how readily two partners part at equilibrium. Lower therefore signals tighter binding.

The record behind these values is patent US20080281082 (published 2008).
